From patent US9187553

Target: recombinant human FceRIa D2/D1 subunit (human) (UniProt P12319)
Test: ELISA, IgE captured by His-tagged receptor on Ni-treated plate

Chain of UniProt P12319 (P12319 26-205): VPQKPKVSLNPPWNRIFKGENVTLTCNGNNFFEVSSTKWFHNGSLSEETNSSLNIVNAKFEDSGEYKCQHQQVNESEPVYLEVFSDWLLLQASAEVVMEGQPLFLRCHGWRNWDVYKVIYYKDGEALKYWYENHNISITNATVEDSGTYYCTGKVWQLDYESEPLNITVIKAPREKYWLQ

OD signal at 50 ng/ml: 1.2 OD
Substance: human myeloma IgE (BED) (antibody)
